Where a chain is given by its changes, count along the chain named. Numbers in names are those of the source.
B1: sugarcane UGPase (Saccharum hybrid cultivar SP80-3280) (protein)
chain: MAAAAAAEVSVDEKLDKLRAEVAKLDQISENEKAGFISLVSRYLSGEAEQIEWSKIQTPTDEVVVPYDTLASPPEDLEETKKLLDKLVVLKLNGGLGTTMGCTGPKSVIEVRNGFTFLDLIVIQIESLNKKYGCSVPLLLMNSFNTHDDTQKIVEKYSNSNIEIHTFNQSQYPRIVTEDFLPLPSKGKSGKDGWYPPGHGDVFPSLNNSGKLDILLAQGKEYVFIANSDNLGAIVDIKILNHLINNQNEYCMEVTPKTLADVKGGTLISYEGRVQLLEIAQVPDEHVNEFKSIEKFKIFNTNNLWVNLKAIKRLVEAEALKMEIIPNPKEVDGVKVLQLETAAGAAIRFFDKAIGINVPRSRFLPVKATSDLLLVQSDLYTLVDGFVIRNPARANPANPSIELGPEFKKVANFLARFKSIPSIVELDSLKVSGDVWFGSGITLKGKVTITAKSGVKLEIPDGAVLENKDVNGPEDL
notes: active as monomer
B2: sugarcane UGPase (Saccharum hybrid cultivar SP80-3280; C102S) (protein)
chain: B1 chain with C102S
notes: active as monomer
B3: barley UGPase (Hordeum vulgare) (protein)
chain: MAAAAVAADSKIDGLRDAVAKLGEISENEKAGFISLVSRYLSGEAEQIEWSKIQTPTDEVVVPYDTLAPPPEDLDAMKALLDKLVVLKLNGGLGTTMGCTGPKSVIEVRNGFTFLDLIVIQIESLNKKYGCSVPLLLMNSFNTHDDTQKIVEKYSNSNIEIHTFNQSQYPRIVTEDFLPLPSKGQTGKDGWYPPGHGDVFPSLNNSGKLDTLLSQGKEYVFVANSDNLGAIVDIKILNHLIHNQNEYCMEVTPKTLADVKGGTLISYEGRVQLLEIAQVPDEHVDEFKSIEKFKIFNTNNLWVNLKAIKRLVDAEALKMEIIPNPKEVDGVKVLQLETAAGAAIRFFEKAIGINVPRSRFLPVKATSDLLLVQSDLYTLVDGYVIRNPARVKPSNPSIELGPEFKKVANFLARFKSIPSIVELDSLKVSGDVSFGSGVVLKGNVTIAAKAGVKLEIPDGAVLENKDINGPEDI
notes: active as monomer
B4: barley UGPase (Hordeum vulgare; C99S) (protein)
chain: B3 chain with C99S
notes: active as monomer

What was measured:
Assay in all cases: purified protein
[1] = substrate: O=P(O)(O)OP(=O)(O)O; assay type: biochemical, Saccharum hybrid cultivar; settings: untreated enzyme, UDPG fixed at 2 mM, 5 mM MgCl2, Hepes-NaOH pH 7.5, room temperature
[2] = substrate: O=c1ccn([C@@H]2O[C@H](CO[P@@](=O)(O)O[P@@](=O)(O)O[C@H]3O[C@H](CO)[C@@H](O)[C@H](O)[C@H]3O)[C@@H](O)[C@H]2O)c(=O)[nH]1; assay type: biochemical, Saccharum hybrid cultivar; settings: untreated enzyme, PPi fixed at 1 mM, 5 mM MgCl2, Hepes-NaOH pH 7.5, room temperature
[3] = substrate: O=P(O)(O)OP(=O)(O)O; assay type: biochemical, Hordeum vulgare; settings: reduced enzyme (2 mM DTT overnight), 5 mM MgCl2, Hepes-NaOH pH 7.5, room temperature
[4] = substrate: O=c1ccn([C@@H]2O[C@H](CO[P@@](=O)(O)O[P@@](=O)(O)O[C@H]3O[C@H](CO)[C@@H](O)[C@H](O)[C@H]3O)[C@@H](O)[C@H]2O)c(=O)[nH]1; assay type: biochemical, Hordeum vulgare; settings: reduced enzyme (2 mM DTT overnight), 5 mM MgCl2, Hepes-NaOH pH 7.5, room temperature

Protein	Km [1]	Km [2]	also measured
B1	40 µM	80 µM	
B2	230 µM	110 µM	
B3			Km ([3]; UDPG fixed at 1 mM): 30 µM; Km ([4]; PPi fixed at 1 mM): 40 µM
B4			Km ([3]; UDPG fixed at 2 mM): 310 µM; Km ([4]; PPi fixed at 5 mM): 110 µM
